Data taken from patent US20250355001A1 (GTINVENT, published 2025).
Positions count from the first letter of the chain named. Where no end group is shown, it is not given here. The star is where a group is joined. Biotin = O=C1N[C@H]2[C@H](CS[C@H]2CCCCC(=O)*)N1

How the values were obtained:
dGAE (tau 297-391) [1] = target: T1, dGAE (tau 297-391) (human, UniProt P10636 614-708); assay: sandwich ELISA, 423 mAb capture, dGAE titrated, scAb at 10 µg/ml [D00039 Figure 34 cont. F]
T1 construct: monomer; also called dGAE95

aggregated dGAE [2] = target: T2, aggregated dGAE (human, UniProt P10636 614-708, limits assumed); assay: sandwich ELISA, S1D12 mAb capture, SDS + Triton treated dGAE aggregates
T2 construct: dGAE aggregated in vitro with DTT, 700 rpm, 37 C, 24 h; also called dGAE aggregates; dGAE agg
Method: (§1) For aggregation, 1000 μL 100 μM dGAE+10 μL 10 mM DTT was added to a ‘LoBind’ microfuge tubes and agitated at 700 RPM/37° C. for 24 hours. Resulting sample centrifuged at 17,000×g/4° C. for 60 min and supernatant discarded to remove left over monomer. Pellet resuspended in half the original volume for future experiments and hereafter referred to as ‘aggregates’. 1 μl of aggregates was added to 1 ml of PBS and SDS was added to a final concentration of 1% (w/v). This was left to incubate on lab bench for 1 h with gentle agitation every 15 minutes. In order to neutralize the SDS effect on ELISA, Triton X-100 added to a final concentration of 3% (v/v) and mixed gently by pipetting to prevent any bubble formation. […] Similarly aggregates treated with only SDS or Triton X-100, untreated aggregates, dGAE monomers treated with only SDS or SDS+Titon X-100 were also added to designated wells as controls. All samples were then double diluted across the plate in final volumes of 100 μl. The final column was left with no protein to act as a blank.

aggregated dGAE [3] = target: T2, aggregated dGAE; assay: ELISA, direct immobilisation, SDS + Triton treated dGAE aggregates
tau fragment 186-350 = target: T3, tau fragment 186-350 (human, UniProt P10636 503-667); assay: direct ELISA
T3 construct: also called m186-350

[4] = target: T4, full length human tau protein 2N4R (hT40) (human, UniProt P10636 1-758); assay: sandwich ELISA, S1D12 mAb capture, scAb detection
T4 construct: recombinant; also called T441
Outline: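 Read-out was HRP anti-HuCk with absorbance at 450 nm (positive above 0.3 after background subtraction) or chemiluminescence, including directly HRP-conjugated scAbs.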

tau fragment 337-368 = tau fragment 337-368 (human); assay: direct ELISA
[5] = target: T4, full length human tau protein 2N4R …; assay: SPR, scAb captured, tau analyte
Outline: (§2)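 scAb captured on flow cell 2 of an antibody-coated chip, flow cell 1 as reference; tau analyte injected 120 s association, 420 s dissociation, glycine pH 2.0 regeneration, in multi-cycle or single-cycle kinetics format. Responses fitted to a 1:1 binding model for kinetics and affinity.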

dGA (tau 297-390) [6] = target: T5, dGA (tau 297-390) (human, UniProt P10636 614-707); assay: SPR, scAb captured, tau analyte
Outline: as §2
Target sequence in this assay (P10636 614-707 limits assumed): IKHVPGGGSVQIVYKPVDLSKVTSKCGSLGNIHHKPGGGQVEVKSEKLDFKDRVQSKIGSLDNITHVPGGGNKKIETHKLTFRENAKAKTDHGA

[7] = target: T4, full length human tau protein 2N4R …; assay: Biacore
Outline: as §2

[8] = target: T4, full length human tau protein 2N4R …; assay: SPR, summary table
Outline: as §2

tau fragment 369-391 = target: T6, tau fragment 369-391 (human); assay: direct ELISA
T6 peptide: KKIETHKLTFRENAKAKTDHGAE

aggregated dGAE [9] = target: T2, aggregated dGAE; assay: sandwich ELISA, Triton-treated aggregates titrated, S1D12 mAb capture
Method: as §1

[10] = target: T7, tau parent peptide 367-379 (GNKKIETHKLTFR) (human); assay: ELISA on biotinylated peptide over streptavidin
T7 peptide: Biotin-GNKKIETHKLTFR

tau fragment 369-390 = target: T8, tau fragment 369-390 (human); assay: direct ELISA
T8 peptide: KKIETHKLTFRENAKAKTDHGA

dGAE (tau 297-391) [11] = target: T1, dGAE (tau 297-391); assay: sandwich ELISA, 423 mAb capture, dGAE titrated, scAb at 10 µg/ml
[12] = target: T9, tau parent peptide 355-367 (GSLDNITHVPGGG); assay: ELISA on biotinylated peptide over streptavidin
T9 peptide: Biotin-GSLDNITHVPGGG
Method: Briefly, 5 μg/ml streptavidin (Thermo Fisher) was adsorbed to Nunc 96-well MaxiSorp plates and following incubation at 37° C. for 1 h, the plates were washed as normal and blocked with 2% MPBS. N-terminally biotinylated peptides (Prolmmune Ltd) were added to the plates and incubated for 1 h at 37° C. Subsequently, test scAbs at starting concentrations of 100-500 nM was added and double diluted across the plate for each peptide and incubated for 1 h at 37° C. Rest of the ELISA was conducted as described above and the plates were read at absorbance 450 nm. Immunoreactivity of the scAb of interest was quantified as the % of scAb was bound for each peptide at a chosen concentration (FIG. 15-20).

dGAE (tau 297-391) [13] = target: T1, dGAE (tau 297-391); assay: sandwich ELISA, 423 mAb capture, dGAE titrated, scAb at 10 µg/ml [D00041 Figure 34 cont. O]
[14] = target: tau fragment 266-359 (R1-3) (human, UniProt P10636 583-676); assay: direct ELISA
[15] = target: T4, full length human tau protein 2N4R …; assay: hT40 ELISA
dGAE (tau 297-391) [16] = target: T1, dGAE (tau 297-391); assay: sandwich ELISA, 423 mAb capture, dGAE titrated, scAb at 10 µg/ml; remark: listed apart in the source
aggregated dGAE [17] = target: T2, aggregated dGAE; assay: capture ELISA, mAb coated at 1 µg/ml, aggregates titrated, S1D12 scAb detection
[18] = target: T4, full length human tau protein 2N4R …; assay: SPR, hT40 immobilised, mAb analyte
[19] = target: T10, human tau (hT40) with P301S and G335D of Line 66 mice (human, UniProt P10636 1-758); assay: Western blot
T10 construct: transgene product in brain homogenate or plasma; also called L66 human tau

dGAE (tau 297-391) [20] = target: T1, dGAE (tau 297-391); assay: direct ELISA
Method: (§3) A series of binding ELISA was performed using various truncated versions of the tau protein and 13mer peptide libraries spanning the entire hT40 molecule for mapping the epitopes of anti-tau scAbs (Full list of protein antigens used is given in Table 14). In general, ELISA plates were coated with 1 μg/ml hT40 or dGA or dGAE or other truncated versions of the protein and in the case of biotinylated peptides, plates were coated with 5 μg/ml Streptavidin followed by 1 μg/ml biotinylated peptide. The plates were blocked with 2% MPBS and scAb samples added at desired starting concentrations and double diluted across the plate. Binding was detected using anti-Human C Kappa HRP conjugated secondary antibody and the resulting immunoreaction was developed and absorbance values measured as described above.

[21] = target: T4, full length human tau protein 2N4R …; assay: direct ELISA
Method: as §3

dGA (tau 297-390) [22] = target: T5, dGA (tau 297-390); assay: direct ELISA
Method: as §3

T4 sequence (P10636 other isoform, or with tags, fused parts or gaps limits assumed): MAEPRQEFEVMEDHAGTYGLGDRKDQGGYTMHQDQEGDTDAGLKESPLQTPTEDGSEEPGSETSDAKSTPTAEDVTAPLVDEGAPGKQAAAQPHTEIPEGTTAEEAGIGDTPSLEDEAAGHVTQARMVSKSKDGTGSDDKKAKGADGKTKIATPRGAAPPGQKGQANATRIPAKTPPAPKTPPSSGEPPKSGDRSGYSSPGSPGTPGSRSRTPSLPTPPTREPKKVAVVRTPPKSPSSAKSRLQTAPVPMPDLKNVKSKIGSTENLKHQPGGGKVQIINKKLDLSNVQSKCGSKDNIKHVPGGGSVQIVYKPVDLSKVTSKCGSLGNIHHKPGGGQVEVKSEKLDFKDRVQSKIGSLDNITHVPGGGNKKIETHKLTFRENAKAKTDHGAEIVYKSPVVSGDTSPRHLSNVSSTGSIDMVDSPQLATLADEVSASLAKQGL
T10 sequence (P10636 other isoform, or with tags, fused parts or gaps P301S G335D P301S G335D limits assumed): as the sequence (P10636 other isoform, or with tags, fused parts or gaps limits assumed) above, with P301S, G335D counted along it
Chain of tau fragment 337-368 (human) (peptide, as listed by the source): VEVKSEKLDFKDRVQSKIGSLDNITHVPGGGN
Chain of tau fragment 266-359 (R1-3) (P10636 583-676): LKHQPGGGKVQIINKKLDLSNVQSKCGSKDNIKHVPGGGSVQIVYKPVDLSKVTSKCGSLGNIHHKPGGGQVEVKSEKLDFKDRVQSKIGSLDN
T3 sequence (P10636 503-667): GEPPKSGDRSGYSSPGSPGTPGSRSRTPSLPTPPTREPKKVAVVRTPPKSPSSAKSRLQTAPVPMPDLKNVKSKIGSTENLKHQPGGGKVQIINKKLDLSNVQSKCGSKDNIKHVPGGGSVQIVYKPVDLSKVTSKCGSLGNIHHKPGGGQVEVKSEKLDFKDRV

B1: CA9 scAb (scFv, not shown: small tags and cut ends)
scFv: QVQLQESGPSLVKPSQTLSLTCTVSGFSLTSNSVGWVRQAPGKAPEWVAGIDTDGEEGYNPALNSRLSITRDTSKSQVSLSLSSVTSEDTAVYYCGRSYRSDGLAYGYVQAIDYWGPGLLVTVSSEGKSSGASGESKVDDQAVLTQPASVSGSLGQRVSITCSGSFIGISSVGWFQQLPGSGLRTIIVASDGRPSGVPDRFSMSKSGNTATLTISSLQAEDEADYFCGSSDRTQYTGVFGSGTRLTVLG
notes: scAb
dGAE (tau 297-391) [1]
  EC50 (read off the curve): ~0.2 µg/mL
Aggregated dGAE [2]
  LoD: 4 ng/mL
Aggregated dGAE [3]
  LoD: 40 ng/mL

B2: S1G2 scAb (scFv, not shown: small tags and cut ends)
scFv: B1 scFv with S101A, L144V, A148S, Q234P
notes: scAb
Tau fragment 186-350
  binding result: no binding (tested: 25 ug/ml)
[4]
  LoD chemiluminescence detection: 0.12 ng/mL
  LoD colourimetric detection: 2 ng/mL
Tau fragment 337-368
  binding result: no binding (tested: 25 ug/ml)
[5]
  Kd: 0.17 nM
  koff: 0.00018 s⁻¹
  kon: 1.06e+06 M⁻¹ s⁻¹
dGA (tau 297-390) [6]
  Kd: 0.447 nM
  koff: 0.00035 s⁻¹
  kon: 783000 M⁻¹ s⁻¹
[7]
  Kd: 0.6 nM
[8]
  Kd: 0.17 nM
Tau fragment 369-391
  EC50 (read off the curve): ~0.5 µg/mL
Aggregated dGAE [9]
  EC50 (read off the curve): ~0.05 µg/mL
[10]
  EC50 (read off the curve): ~10 µg/mL
Tau fragment 369-390
  EC50 (read off the curve): ~0.4 µg/mL
Aggregated dGAE [2]
  LoD: 2 ng/mL
Aggregated dGAE [3]
  LoD: 16 ng/mL

B3: CA4 scAb (scFv, not shown: small tags and cut ends)
scFv: QVQLQESGPSLVKPSQTLSLTCTVSGFSLTSYSVYWVRQAPGQALEWISIMYASGRVDYNPALKSRLSITRDTSKSQFSLSLSSVTTEDTAVYYCTRGIENWGPGLLVTVSSEGKSSGASGESKVDDDIQVTQSPSSLSASLTERVSITCRTSQSVNNYLSWYQQKPGQAPKLLIYYATRLYTDVPSRFSGSGSGTDYTLTITSLEADDTATYYCLQYDSTPLAFGGGTNVEIK
notes: scAb
dGAE (tau 297-391) [11]
  EC50 (read off the curve): ~0.3 µg/mL
[4]
  LoD chemiluminescence detection: 0.37 ng/mL
  LoD colourimetric detection: 6 ng/mL
[5]
  Kd: 3.61 nM
  koff: 0.00165 s⁻¹
  kon: 458000 M⁻¹ s⁻¹
[7]
  Kd: 3.6 nM
[8]
  Kd: 3.61 nM
[12]
  binding result: binds

B4: CE3 scAb (scFv, not shown: small tags and cut ends)
scFv: QVRLQESGPSLVKPSQTLSVTCTVSGFSLISNAVGWVRQAPGKVPESLAGCSSDGKCYYNSALKSRLDITRDTSKNQISLSLSSVTTDDAAVYYCTRGYYPVYGYDYLGTIDYWGPGLLVTVSSEGKSSGASGESKVDDQAVLTQPSSVSGSLGQRVSITCSGSSSNVGRNDVAWFQQLPGSGLRTIIYGTTSRPSGIPDRFSGSKSGVTATLTIDSLQAEDEADYFCASGDSSAINDIFGSGTRLTVLG
notes: scAb
dGAE (tau 297-391) [13]
  EC50 (read off the curve): ~0.3 µg/mL
[5]
  Kd: 3.79 nM
  koff: 0.000662 s⁻¹
  kon: 174000 M⁻¹ s⁻¹
[14]
  EC50 (read off the curve): ~0.3 µg/mL
[8]
  Kd: 3.79 nM
[15]
  EC50 (read off the curve): ~0.1 µg/mL

B5: CB3 scAb (scFv, not shown: small tags and cut ends)
scFv: QVQLQESGPSLVKPSQTLSLTCTVSGFSLSSVAVNWVRQAPGKVPEWLGGIISNGGTGYNPALKSRLSITRDTSKSQVSLALTHVTTEDTAVYYCGRGVEWEGSMDYLGPGLLVTVSSEGKSSGSGSETKVDDQSVLTQPSSVSGFLGQRVTITCSGSSSNVGAGSYVGWYQQVPGSGLRILIYGATKRASGLPDRFSGSRSGNTATLTISSLQAEDEADYYCVSYQTDFTLVFGSGTRLTVLG
notes: scAb
dGAE (tau 297-391) [16]
  EC50 (read off the curve): ~0.4 µg/mL

B6: S1G2 mAb (antibody, mouse IgG2a, V domains shown)
VH: QVQLQESGPSLVKPSQTLSLTCTVSGFSLTSNSVGWVRQAPGKAPEWVAGIDTDGEEGYNPALNSRLSITRDTSKSQVSLSLSSVTSEDTAVYYCGRSYRADGLAYGYVQAIDYWGPGLLVTVSS
VL: QAVVTQPSSVSGSLGQRVSITCSGSFIGISSVGWFQQLPGSGLRTIIVASDGRPSGVPDRFSMSKSGNTATLTISSLQAEDEADYFCGSSDRTPYTGVFGSGTRLTVLG
notes: sheep-mouse IgG2a chimeric mAb; also called S1G2 antibody
Aggregated dGAE [17]
  EC50 (read off the curve): ~30 nM
[18]
  Kd: 0.14 nM
  koff: 4.75e-05 s⁻¹
  kon: 340000 M⁻¹ s⁻¹
[19]
  binding result: binds

B7: E2B7 scAb (scFv, not shown: small tags and cut ends)
scFv: QVQLQESGPSLVKPSQTLSLTCTVSGFSLTSWGVAWVRQAPGKALEWLGTMRSGGGTEYNPALKSRLSITRDTSKSQVSLSLSSVTTEDMAMYYCARGYLSGIHYAWGRGLLVSVSSEGKSSGASGESKVDDQAVLTQLSSVSGSLGQRVSITCSGSSSNVGDGDYVGWFQQLPGSAPKLLIYSARNRASGVPDRFSGSRSGNTATLTITSLQAEDEADYYCASIDTSRSHIFGSGTRLTVLG
notes: scAb
dGAE (tau 297-391) [20]
  EC50 (read off the curve): ~0.1 µg/mL
[21]
  binding result: no binding (tested: 25 ug/ml)
dGA (tau 297-390) [22]
  binding result: no binding (tested: 25 ug/ml)
